± gives the standard deviation of the averaged measurements.
System: Saccharomyces cerevisiae
Assay: protein stability index of tFT-peptide fusion (C-terminal peptide) (PSI (0-1 scale)); higher = more stable (slower turnover)
Details: genetic background: wild type; temperature: 30 C
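Also: PSI is a weighted mean of sequencing reads over stability bins, variants kept only with over 10 reads, mCherry proximal and sfGFP distal, peptide attached via GGGS linker.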

Sequence	protein stability index
TCRGRLCVCLFC	0.505 ± 0.015
TDPLGDDSSESE	0.672 ± 0.048
TEHRVGEKEPWH	0.681 ± 0.018
TEKQSGRINTAI	0.653 ± 0.034
TERPMAVESRAW	0.686 ± 0.012
TEVSDVSWSEVW	0.696 ± 0.025
TFDNEYKRSRKV	0.678 ± 0.033
TFFGEDVGVVVD	0.69681 ± 0.00058
TFHTSSSPAHLP	0.663 ± 0.038
TFSVNLGAASAK	0.662 ± 0.042
TGGKGNKNKIKE	0.692 ± 0.031
TGLMAPEGGGQA	0.719 ± 0.076
TGRGVFCMSIHM	0.643 ± 0.045
TGRQQTCRIIIE	0.6873 ± 0.00092
TGRRLVLGDRCM	0.72 ± 0.011
TGSRISHSPLYP	0.671 ± 0.02
TGTPGAVRRGGA	0.727 ± 0.1
TGVGRLGYRFVV	0.588 ± 0.0064
TGWSRTTVGFAT	0.711 ± 0.046
THMSPLPTSERW	0.678 ± 0.085
THPPPPPPACSV	0.632 ± 0.037
THRNEKQGTVTY	0.651 ± 0.016
THSLSCPPRNPP	0.647 ± 0.07
THVDLGVLVSPE	0.6698 ± 0.0017
THVKVNNQARGR	0.722 ± 0.014
TIATASWILRRL	0.624 ± 0.0045

Sequence	protein stability index
TIRHKALTRKSR	0.713 ± 0.012
TKIENYKRKRAK	0.708 ± 0.1
TKIKKKTQEGSR	0.698 ± 0.029
TKKRKRKKKGNK	0.715 ± 0.05
TKQIKKNKHKRA	0.727 ± 0.12
TLAPSKHGSNRT	0.666 ± 0.049
TLCCLFPIPSSS	0.699 ± 0.08
TLCFSFPVPGFL	0.723 ± 0.1
TLCTSPWGVVAV	0.511 ± 0.024
TLQLFPRIPSFQ	0.707 ± 0.0019
TLRLPLHLLRPT	0.642 ± 0.021
TLRPPPPPAFPP	0.719 ± 0.084
TLSFPFRPLRLA	0.48 ± 0.033
TLSYSPPCSPRH	0.742 ± 0.03
TLVPAYRCEWCA	0.736 ± 0.046
TLYEVHQSENSR	0.666 ± 0.016
TMLPQGFSGNLH	0.6891 ± 0.0025
TMQDSNKSQGCA	0.706 ± 0.019
TMSPPSTSGGMG	0.6855 ± 0.0042
TNMTRWRIRVRD	0.676 ± 0.053
TNNTKRDKKRIQ	0.703 ± 0.16
TPHNQPKPTPPC	0.698 ± 0.032
TPHRVGRAAATR	0.675 ± 0.02
TPKAMHPNPNTL	0.6458 ± 0.0024
TPLLRRHSFSRN	0.779 ± 0.021
TPLPLPPPRPSP	0.685 ± 0.0031

Sequence	protein stability index
TPLPSLPRPSAP	0.736 ± 0.016
TPPLHSPFLFPP	0.671 ± 0.049
TPPPPLSCPPPS	0.487 ± 0.035
TPPPPLVPPLPP	0.578 ± 0.017
TPPPTPSLPTRP	0.677 ± 0.057
TPPTHPPPLPPL	0.752 ± 0.11
TPRSCTLPTPPP	0.606 ± 0.051
TPSFTLNAYMLT	0.693 ± 0.014
TPTPPPSFLHGS	0.663 ± 0.046
TPTPPRPPFRSP	0.709 ± 0.035
TPVLPLSPFPPD	0.607 ± 0.059
TPVPIARLRESH	0.709 ± 0.035
TPVVSVFFLPHY	0.673 ± 0.0095
TQHPQPCPLAAV	0.712 ± 0.12
TQSNRKPLECPS	0.679 ± 0.066
TRGGTVKDRQQR	0.702 ± 0.037
TRGSLIFACSVF	0.576 ± 0.033
TRIEPTQGVDSP	0.664 ± 0.01
TRPKINKGKGTG	0.6677 ± 0.0014
TRQGDLYYYLYV	0.67 ± 0.024
TRRKVKYTELYQ	0.69 ± 0.041
TRRVKWSWLLKP	0.7 ± 0.08
TRSAFPSFPTRS	0.68 ± 0.02
TRTSRGRTLTTL	0.583 ± 0.016
TRVGNMVARRGS	0.687 ± 0.048
TSFAPPSLPRHS	0.735 ± 0.056

Sequence	protein stability index
TSGAEKLPIANS	0.648 ± 0.05
TSGAKKISSGTQ	0.707 ± 0.036
TSLPPNLMRTAA	0.634 ± 0.04
TSNGSGLMFQSQ	0.62 ± 0.019
TSNLRIISTWRV	0.685 ± 0.024
TSPGCPFAFITL	0.714 ± 0.052
TSPPPPIPLPPR	0.695 ± 0.032
TSPSPLPPLFFT	0.706 ± 0.0087
TSPTKSPTTTNN	0.709 ± 0.039
TSSTATWSYRNY	0.673 ± 0.036
TSTHSFLDFGTG	0.6272 ± 0.0011
TSTTGLHVSAMS	0.727 ± 0.021
TSVVRIGVYRAS	0.613 ± 0.037
TTGNTHALSHAH	0.717 ± 0.055
TTLNAETCFPLS	0.702 ± 0.043
TTLPFLLGSGGF	0.677 ± 0.065
TTVESYLDRRRY	0.664 ± 0.035
TTVSSSLSPVPD	0.7181 ± 0.0054
TVERGGSLSLVV	0.718 ± 0.026
TVKAGESILEQR	0.716 ± 0.013
TVMRPSVGHVDG	0.68 ± 0.038
TVSRNKKKKQIQ	0.613 ± 0.038
TVVYPFHSGGFA	0.694 ± 0.024

Source: the supplement of paper PMC10724198
